Source: publication PMC3888107

Tests used:
[1] = molecular target: PR20, extreme drug-resistant mutant of mature HIV-1 protease (HIV-1); assay: enzyme activity against protease concentration
[2] = molecular target: ScPR, single-chain dimer of two PR monomers linked by a GGSSG sequence (HIV-1); assay: differential scanning calorimetry
[3] = molecular target: PR, mature HIV-1 protease containing the mutations Q7K, L33I, L63I, C67A, C95A (HIV-1); assay: differential scanning calorimetry

Row | Substance | Kd [1] [nM] | ΔTm (I), Tm(+inhibitor)-Tm(−inhibitor) [2] [°C] | ΔTm (I), Tm(+inhibitor)-Tm(−inhibitor) [3] [°C]
1 | PR20, extreme drug-resistant mutant of mature HIV-1 protease (enzyme) | 29 | – | –
2 | RPB, substrate (CA/SP1) analogue inhibitor H-Arg-Val-Leu-(r)-Phe-Glu-Ala-Nle-NH2 (peptide) | – | 7.8 | 9.2
